Measured values as given in patent US20220194999A1 (Janssen / Centocor, published 2022).

Target: T1, HLA-A*02:01 class I complex (conditional p*HLA*02:01, biotinylated heavy chain with beta2-microglobulin) (human, biotinylated heavy chain)
T1 construct: UV-labile peptide p* is cleaved and exchanged for the test peptide; also called HLA 2.1
Assay: UV peptide exchange, HLA class I ELISA, % of Pos peptide;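 also: Streptavidin-captured HLA complexes after exchange detected via HRP anti-human B2M antibody, absorbance read, colour scales with intact complex, normalized to exchange control peptide as 100%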
Source text: The HLA class I ELISA is an enzyme immunoassay based on the detection of beta2-microglobulin (B2M) of (peptide-stabilized) HLA class I complexes. To this end streptavidin is bound onto polystyrene microtiter wells. After washing and blocking, HLA complex present in exchange reaction mixtures or ELISA controls is captured by the streptavidin on the microtiter plate via its biotinylated heavy chain. Non-bound material is removed by washing. Subsequently, horseradish peroxidase (HRP)-conjugated antibody to human B2M is added. […] In the latter case B2M is removed during the washing step. After removal of non-bound HRP conjugate by washing, a substrate solution is added to the wells. A colored product is formed in proportion to the amount of intact HLA complex present in the samples. After the reaction has been terminated by the addition of a stop solution, absorbance is measured in a microtiter plate reader. The absorbance is normalized to the absorbance of an exchange control peptide (represents 100%). Also, suboptimal HLA binding of peptides with a moderate to low affinity for HLA class I molecules can be detected by this ELISA technique
Coating wells of two NUNC MaxiSorp™ 96-well ELISA plates: only the contents of one coating buffer capsule were dissolved in 100 mL of distilled water (0.05 M carbonate-bicarbonate buffer, pH 9.6 at 25° C.). 46 μL of Streptavidin stock solution were added to 23 mL coating buffer. 100 μL of the Streptavidin stock solution were added to all wells. Each microtiter plate was covered with an adhesive seal and incubated overnight at room temperature (18-25° C.).

Binder | Average % | Exch I (%) | Exch II (%)
SLTCTYFPV (also called M212) [TP53_S127F6 mimic peptide SLTCTYFPV] | 95.5% | 93.7% | 97.2%
SLTCTYFPL (also called M214) [TP53_S127F8 mimic peptide SLTCTYFPL] | 70.8% | 69.9% | 71.6%
